Results reported in PMC4975489, “The Arabidopsis Protein Phosphatase PP2C38 Negatively Regulates the Central Immune Kinase BIK1” (PLoS Pathogens, 2016).

Molecular target: T1, recombinant GST-BIK1 (Arabidopsis thaliana, UniProt O48814 1-395)
T1 construct: BIK1, receptor-like cytoplasmic kinase of Arabidopsis thaliana; source: recombinant protein
T1 sequence (looked up): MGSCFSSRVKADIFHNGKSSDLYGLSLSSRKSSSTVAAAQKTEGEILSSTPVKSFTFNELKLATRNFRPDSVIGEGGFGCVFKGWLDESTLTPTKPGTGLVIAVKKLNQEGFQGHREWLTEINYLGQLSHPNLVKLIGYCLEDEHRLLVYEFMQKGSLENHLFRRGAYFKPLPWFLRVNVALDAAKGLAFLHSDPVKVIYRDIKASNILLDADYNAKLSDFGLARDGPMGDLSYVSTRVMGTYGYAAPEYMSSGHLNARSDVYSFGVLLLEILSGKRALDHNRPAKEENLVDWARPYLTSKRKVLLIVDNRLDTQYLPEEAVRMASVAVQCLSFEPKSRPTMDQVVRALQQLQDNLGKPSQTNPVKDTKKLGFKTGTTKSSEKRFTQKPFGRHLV
Experiment: pull-down; recombinant MBP-PP2C38 and GST-BIK1 in column buffer (50 mM Tris pH 7.5, 50 mM NaCl, 0.2% IGEPAL CA-630), 4°C; MBP pull-down on amylose resin
Conditions: both partners purified

B1: recombinant MBP-PP2C38 (enzyme, Arabidopsis thaliana, UniProt Q9LHJ9 1-385, looked up)
chain: MVSSATILRMVAPCWRRPSVKGDHSTRDANGRCDGLLWYKDSGNHVAGEFSMSVIQANNLLEDHSKLESGPVSMFDSGPQATFVGVYDGHGGPEAARFVNKHLFDNIRKFTSENHGMSANVITKAFLATEEDFLSLVRRQWQIKPQIASVGACCLVGIICSGLLYIANAGDSRVVLGRLEKAFKIVKAVQLSSEHNASLESVREELRSLHPNDPQIVVLKHKVWRVKGIIQVSRSIGDAYLKKAEFNREPLLAKFRVPEVFHKPILRAEPAITVHKIHPEDQFLIFASDGLWEHLSNQEAVDIVNTCPRNGIARKLIKTALREAAKKREMRYSDLKKIDRGVRRHFHDDITVIVVFLDSHLVSRSTSRRPLLSISGGGDLAGPST
notes: PP2C38, protein phosphatase 2C of Arabidopsis thaliana (At3g12620); 'PP2C38 CDS was inserted between BamHI and SalI restriction sites of pMAL-c4E'; source: recombinant protein (PP2C38 CDS in pMAL-c4E, NEB)
- binding result: binds
